± gives the half width of the 95% confidence interval.
Tests used:
[1] = folding stability dG unfold from chymotrypsin proteolysis; higher = more stable
How it was run: (§1)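 Sequencing followed digestion of designed mini-proteins with trypsin and chymotrypsin, each at 11 concentrations in threefold dilutions together with a no-protease condition. The mini-proteins were under 80 residues, had no cysteine, sat in a PA-tagged cDNA display construct, and were kept only if AlphaFold2 dimer inter-PAE was above 15. From the counts, Bayesian fitting gave K50, and unfolding free energy was derived against a sequence-predicted unfolded-state K50 and a shared folded-state K50, per protease or combined.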

[2] = folding stability dG unfold from trypsin proteolysis; higher = more stable
How it was run: as §1

[3] = folding stability dG unfold (combined trypsin and chymotrypsin); higher = more stable
How it was run: as §1

Row | Sequence | folding stability dG unfold [1] [kcal/mol] | folding stability dG unfold [2] [kcal/mol] | folding stability dG unfold [3] [kcal/mol]
1 | SAGGSAGGSAGGKIYKKKNGTYKIIIYDKKTKKVYEIEIPVSKEDKPKILKEAKELAKKSAGGSAGGSAGGS [r10_379_TrROS_Hall] | 1.49 ± 0.096 | 0.609 ± 0.11 | 1.17 ± 0.084
2 | SAGGSAKKKKTLKITLIIKVKTKEEAEKLAEELAEKLKKLLPEGAKIKVKVTVNKETGYVTVEIELSAGGSA [r15_981_TrROS_Hall] | 3.64 ± 0.14 | 2.88 ± 0.16 | 3.38 ± 0.15
3 | SAGGSAGGSGMTVVTLEAEPETAEEAVAAAIQAIRDALPADETIASVEVSFDPATGKVTVVVESAGGSAGGS [r12_308_JUSTAS] | 2.01 ± 0.042 | 0.757 ± 0.051 | 1.8 ± 0.12
4 | SAGGSASMVEEEVTLQKKVKSEEEALKFAEEVKESNPHVKTVEVSLEKLPDGSILVNVTIKRILKPSAGGSA [r15_726_JUSTAS] | 3.31 ± 0.093 | 4.43 ± 0.4 | 4.21 ± 0.29
5 | SAGGSAGGSAMTVSIPPEVITSVEYDPSTNKVTITPSDGSVKTYDVESPEEVFKANNIGPESAGGSAGGSAG [r3_34_JUSTAS] | 0.648 ± 0.11 | 0.887 ± 0.044 | 0.753 ± 0.095
6 | SAGGSAGGSPWKKVKFKFMFPFPNYYVRISIEIWVNPGDNEIMIEMSIEIFPIPPGDNKAFKDSAGGSAGGS [r12_885_TrROS] | 3.9 ± 0.11 | 2.79 ± 0.24 | 3.31 ± 0.36
7 | SADGKVKVVVNLRITVTPLSPDGTPQPLPAASIPLVFEGDANDPEAVEQAVRDVLDALAPLFPDAEIVVDSA [r9_1112_TrMRF] | 1.98 ± 0.046 | 1.23 ± 0.082 | 1.73 ± 0.13
8 | SAGGSAGGSAGMTFVITDKNGKETTISLEEAAKLLGIPVEEITEEELKEFLEKKVKTIEKISSAGGSAGGSA [r18_403_JUSTAS] | 2.6 ± 0.046 | 0.898 ± 0.074 | 2.18 ± 0.17
9 | SAGNVVETEEKPVESPLPRKATLTTLTSPTPGVTFRVFTSPENVTTVEVETDGRTETLEPAEAEALLASSAG [r5_157_JUSTAS] | -0.995 ± 0.3 | -1.35 ± 0.58 | < -1
10 | PKIVEILDAKRTPDGSLVIKIKIEPPEPNVKIKVIVKTPNSFKVYEIDPTKTTLEITIPGNVTNPKIEVFGS [r1_428_TrMRF] | 2.65 ± 0.14 | 2.51 ± 0.17 | 2.52 ± 0.34
11 | SMSPEALKKANEFAEYIAEHFKNWNIEIDVEVEWDPDGEITIRAKIEMRPPPPPPPKPKRDPNGKWKWEGSA [r9_82_TrROS] | 2.3 ± 0.23 | 0.943 ± 0.079 | 1.84 ± 0.51
12 | SAGGKKKKVVIKLPSTNKAVEAELVSVKKGKNKYYLEIKLPNGKKYKFPLEVIGDFKWDEGEGTLEVPSAGG [r13_211_TrMRF] | 2.98 ± 0.05 | 1.79 ± 0.047 | 2.66 ± 0.11
13 | SAGGSAGGSAKEIKLKITKVTFTENEDGTLTATFELEDGYRVTIKFNKKTNKVEIKIEPLPSAGGSAGGSAG [r3_438_TrROS_Hall] | 4.12 ± 0.082 | 2.47 ± 0.091 | 3.74 ± 0.15
14 | SAGGSAGGSAGGEIEVKEGEVVLVRLPDGTLLLYDKNTRRLYRFRFKDGKLEVEELELPESAGGSAGGSAGG [r7_527_TrROS_Hall] | 4.356 ± 0.039 | 3.35 ± 0.06 | 4.03 ± 0.12
15 | SAGGSAKKVVLLTIPPSANLPPNSKLVVKFPNGKEKTYKFNDKPVVILLVTDNNGNFSFGVSVEDKSAGGSA [r15_992_TrMRF] | 3.44 ± 0.17 | 1.87 ± 0.063 | 2.68 ± 0.3
16 | SAGGSAGGSAGGSMTSIKITYPDGSTKSASVSVDPNTGKVTTTFTDYTLSPDAKFTTISSAGGSAGGSAGGS [r10_306_JUSTAS] | 0.202 ± 0.11 | 0.372 ± 0.027 | 0.325 ± 0.073
17 | SAGGSAGGSNKPVYFRAKIRNPDGKPIGEIEIPAKFDSLEDARSFAENLAKDLPGYKVEIELVSAGGSAGGS [r20_201_TrROS] | 1.38 ± 0.084 | 2.061 ± 0.012 | 1.77 ± 0.081
18 | SAGGSAGGEPELNVLETLEETVDPNTGLTYTTELVQLPDGTLVTVKTLYDKATGTWTVLETTPESAGGSAGG [r6_262_JUSTAS] | 2.07 ± 0.079 | 2.4 ± 0.18 | 2.18 ± 0.13
19 | SAGGMKVTILEVKPDEVVVKTSDGKTYVFPEVIKELKEKGGGVLPTKEEIAEYLKKNNIPVDDVEFGLSAGG [r13_610_JUSTAS] | 1.9 ± 0.058 | 0.436 ± 0.1 | 1.6 ± 0.15
20 | SAWYIIKIEIYNPGQNEPIASHTFMVPEEDLDAFKEKIADQFGMNPGWQIKVEIQPIPPVRDKDGEWKWSAG [r14_297_TrROS] | 2.13 ± 0.077 | 1.54 ± 0.036 | 1.91 ± 0.086
21 | SAGGSITSTTTLPDGTTVTTTVLPSGVTVVTTSTLDPATGTVSTTTTTLPPSSATTTTTTTTVPPLTSAGGS [r16_230_JUSTAS] | 2.16 ± 0.029 | 3.18 ± 0.12 | 2.58 ± 0.046

Row | Sequence | folding stability dG unfold [1] [kcal/mol] | folding stability dG unfold [2] [kcal/mol] | folding stability dG unfold [3] [kcal/mol]
22 | SQNGGPKRKVTITIIIVIPPGQRNPDGKPRPSVEELARYLQKELQEQFPGNKDVKIDITIIPLGDPEQIKSA [r9_329_TrROS] | 2.86 ± 0.15 | 2.06 ± 0.069 | 2.33 ± 0.21
23 | SMPPDEKLIFVTRFKVKPDNPEDIEKALAAARETVRALLEELGLPEVKEVRVLRVEVHPDGYVTVVVEVGSA [r9_754_TrMRF] | 4.73 ± 0.1 | 4.05 ± 0.11 | 4.49 ± 0.08
24 | SAGGSMTITYDPETNTVTILDPNIPPNEPRPVTLTLPDGEKYTLTLRPVPGNGWTGTLTWKSTKDGSAGGSA [r2_89_TrMRF] | 1.54 ± 0.19 | 0.911 ± 0.05 | 1.27 ± 0.21
25 | SAGGSAGGSAGKKPPVYRLVVENEDGEKYEFEFKSLEDLKAALESEEVRKKIKKVKIEKVSAGGSAGGSAGG [r11_1047_TrROS_Hall] | 3.02 ± 0.11 | 2.11 ± 0.09 | 2.6 ± 0.15
26 | SAGMEITVPGPFLSQEVFDLPDRPYLVLPTPEGIAVIDLVTGEAVFYPFGTTEPIVVPVPPGEELDLLSAGG [r19_138_TrMRF] | 1.97 ± 0.042 | 1.73 ± 0.091 | 1.83 ± 0.088
27 | STRTLTVVVEAPTLEEALAAAKALAPPGWKVTVTVERREVVDPETGETRTVLVVTVTIEPAPPPPPAEEKSA [r9_962_TrROS_Hall] | 3.16 ± 0.083 | 2.11 ± 0.028 | 2.86 ± 0.091
28 | SAGGSAEPPEVTVEVLSVEPTPDGYLVVERVVTTPDGVLVYRTVFRPPDGKPVGTDWALFPNPDALSAGGSA [r15_716_TrMRF] | 3.53 ± 0.041 | 2.17 ± 0.23 | 2.95 ± 0.12
29 | SAGGSPIQTAVTTNTLGNETITTTTLVPPEAVATSVTTVYEPDPNSDNYVVKSVLTTTTSTLPPSDAASAGG [r13_568_JUSTAS] | 0.0608 ± 0.067 | -0.417 ± 0.055 | -0.0865 ± 0.062
30 | SAMEKPLETLEIPIPGLPVTVKITIYPSHIEKAKESGIPEITVEALLTIELPDGSKVEKKIPLTVKIPGSAG [r14_100_JUSTAS] | 1.67 ± 0.042 | 1.58 ± 0.043 | 1.61 ± 0.11
31 | SAGGSAGGSAGEKVIRFPFKSPEEIREHIKNGRPIRFPNGKPVKITKIQPYPNGWLWITVSAGGSAGGSAGG [r11_48_TrROS] | 1.3 ± 0.12 | 0.89 ± 0.05 | 1.12 ± 0.21
32 | SAGGSAGGSDVEVTVTLEYDEETGVLYVTAEVRDKETGRTVRVVVKFDLETNEWEVVAVEVLPSAGGSAGGS [r20_163_TrROS_Hall] | 4.25 ± 0.16 | 2.92 ± 0.16 | 3.91 ± 0.11
33 | SAGGSAGGMVETKLVESEELPGNRRVLTYRVTEPDSLYRVTVELTLDPSGTVLSSKTTTEPIPLSAGGSAGG [r6_20_JUSTAS] | 1.12 ± 0.093 | 0.846 ± 0.053 | 1.04 ± 0.073
34 | SAGGSAGGSAGGTGPPPVKTLVIVANWTEEQAEALKKAFPDQEVTVYEIPGLPKTVAVVSSAGGSAGGSAGG [r17_254_TrMRF] | 1.42 ± 0.086 | 0.833 ± 0.03 | 1.16 ± 0.17
35 | SAGMKVPVTVKMKAEKEEELEKVIKEIKEETGFEFEVEKNPETKEYTVKVYATPEVVEILKKKGFDVESAGG [r19_306_TrMRF] | 3.2 ± 0.081 | 1.9 ± 0.14 | 2.77 ± 0.24
36 | SMPRLVATPRPDGSVLVLLEAPPERPEEIAEEIRERLGVPLRVVRIEPVPERVGDRPRLRYRVLIEVDVRSA [r9_431_TrMRF] | 0.923 ± 0.12 | 0.96 ± 0.077 | 0.976 ± 0.095
37 | SPVKWGEEKTYTYPFPDNPNYRIKIKVHVYKDPENGRPYVRMNIEVYNNGKPRKYNINMPVDQLKDLLQFSA [r9_71_TrROS] | 2.66 ± 0.076 | 2.22 ± 0.039 | 2.57 ± 0.21
38 | SAGNPSLVKETIIPFTLPDGSEVKLTVKTDPSTGKVTMPIETKDEKVKAKAIELAKKIAEELGFPEVGLSAG [r5_99_JUSTAS] | 0.241 ± 0.14 | -0.00377 ± 0.15 | 0.261 ± 0.079
39 | SAGGSGGLRVELPFLLPDGYRVTLTVNPETGEITEIRVEPIDAVPPEPEVLPVVGFDPRYGVPLVLSAGGSA [r2_78_TrMRF] | 0.344 ± 0.14 | 1.12 ± 0.026 | 0.812 ± 0.12
40 | SAGGSAMTKEEAKEYAEKRVKEEHPGWTVLGVEVTELPGKEVLTKVTVKPPENPDKTLEFEFKFPLSAGGSA [r15_627_JUSTAS] | 2.61 ± 0.035 | 2.34 ± 0.1 | 2.54 ± 0.072
41 | SAGGSAGGSIKITIYDIMRMLGPNAPPAEWVEKVKHLAKWLADKLGLPDVEIEVEVMSPDQFPSAGGSAGGS [r12_666_TrROS] | 4.49 ± 0.13 | 3.3 ± 0.25 | 4.06 ± 0.17
42 | SANDKHKYEEEYPYRNPNDPGQPMPFKREREVPVQPPPVITIDADELAKELKEQGEIKIPPDGWIAIPFSAG [r14_582_TrROS] | 4.1 ± 0.2 | 3.08 ± 0.4 | 3.51 ± 0.49

Reference: the supplement of paper PMC12764529
